Measurements as given in US20190382474A1 (SURFACE ONCOLOGY, published 2019).

What was measured:
recombinant human IL-27 [1] = target: T1, recombinant human IL-27 (human, UniProt Q14213 21-229; Q8NEV9 29-243); test: cell-based or functional assay
T1 sequence 1: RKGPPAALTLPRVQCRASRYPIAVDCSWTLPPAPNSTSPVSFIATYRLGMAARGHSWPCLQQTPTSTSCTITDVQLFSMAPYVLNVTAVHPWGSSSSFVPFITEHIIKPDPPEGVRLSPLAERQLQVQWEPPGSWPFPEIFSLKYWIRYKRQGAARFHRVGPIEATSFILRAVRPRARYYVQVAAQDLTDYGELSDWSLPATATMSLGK
T1 sequence 2: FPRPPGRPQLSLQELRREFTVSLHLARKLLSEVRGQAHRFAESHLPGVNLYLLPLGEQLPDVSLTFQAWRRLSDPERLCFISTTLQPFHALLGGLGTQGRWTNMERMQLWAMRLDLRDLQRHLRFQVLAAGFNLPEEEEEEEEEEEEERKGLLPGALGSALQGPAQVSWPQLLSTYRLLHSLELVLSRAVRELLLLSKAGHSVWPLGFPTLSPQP

recombinant human IL-27 [2] = target: T1, recombinant human IL-27; test: cell-based or functional assay; remark: listed apart in the source
recombinant mouse IL-27 [3] = target: T2, recombinant mouse IL-27 (mouse, UniProt O35228 19-228; Q8K3I6 29-234, limits assumed); test: cell-based or functional assay
T2 sequence (looked up) 1: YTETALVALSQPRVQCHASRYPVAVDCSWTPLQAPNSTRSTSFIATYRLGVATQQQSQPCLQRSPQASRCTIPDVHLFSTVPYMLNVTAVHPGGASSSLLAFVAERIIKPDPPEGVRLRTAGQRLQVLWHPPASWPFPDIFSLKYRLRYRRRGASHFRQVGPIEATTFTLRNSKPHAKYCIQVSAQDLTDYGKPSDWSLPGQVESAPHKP
T2 sequence (looked up) 2: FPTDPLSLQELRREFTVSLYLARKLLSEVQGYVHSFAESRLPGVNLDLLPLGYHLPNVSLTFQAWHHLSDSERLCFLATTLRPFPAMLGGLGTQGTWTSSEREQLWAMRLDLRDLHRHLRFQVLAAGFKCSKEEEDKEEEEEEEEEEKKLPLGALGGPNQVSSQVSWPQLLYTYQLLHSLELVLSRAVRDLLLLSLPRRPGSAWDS

recombinant rat IL-27 [4] = target: T3, recombinant rat IL-27 (rat, UniProt D3ZPW3 29-234; M0RD76 19-228); test: cell-based or functional assay
T3 sequence (alpha): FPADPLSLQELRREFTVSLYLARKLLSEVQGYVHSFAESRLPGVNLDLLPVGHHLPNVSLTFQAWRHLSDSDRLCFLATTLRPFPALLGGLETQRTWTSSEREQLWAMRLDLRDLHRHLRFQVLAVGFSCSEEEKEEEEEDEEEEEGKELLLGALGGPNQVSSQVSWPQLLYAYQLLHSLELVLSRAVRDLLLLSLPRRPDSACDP
T3 sequence (beta): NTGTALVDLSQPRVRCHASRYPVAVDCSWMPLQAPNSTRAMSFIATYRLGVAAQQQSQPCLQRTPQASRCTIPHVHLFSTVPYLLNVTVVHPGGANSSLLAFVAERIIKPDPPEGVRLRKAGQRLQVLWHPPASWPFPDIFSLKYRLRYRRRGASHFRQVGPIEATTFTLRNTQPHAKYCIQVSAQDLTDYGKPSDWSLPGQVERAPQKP

[5] = target: T4, recombinant cynomolgus monkey IL-27 (cynomolgus monkey, UniProt A0A2K5WPB7 36-244; A0A2K5UBM6 29-244); test: cell-based or functional assay
T4 sequence 1: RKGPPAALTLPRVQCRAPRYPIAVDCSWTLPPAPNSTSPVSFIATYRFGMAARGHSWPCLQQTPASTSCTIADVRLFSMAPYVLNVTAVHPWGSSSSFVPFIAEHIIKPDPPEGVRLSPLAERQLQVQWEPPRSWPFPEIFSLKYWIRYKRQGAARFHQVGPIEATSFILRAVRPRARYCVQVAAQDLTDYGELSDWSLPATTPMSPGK
T4 sequence 2: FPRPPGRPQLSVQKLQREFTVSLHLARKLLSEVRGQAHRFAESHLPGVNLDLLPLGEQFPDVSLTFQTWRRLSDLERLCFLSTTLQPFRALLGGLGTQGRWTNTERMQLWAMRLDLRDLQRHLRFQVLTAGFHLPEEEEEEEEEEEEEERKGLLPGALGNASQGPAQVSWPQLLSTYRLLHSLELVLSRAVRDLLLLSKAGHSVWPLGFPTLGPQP

p28 subunit of IL-27 = target: T5, p28 subunit of IL-27 (Homo sapiens (Human), UniProt Q8NEV9 29-243, limits assumed); test: biochemical affinity and specificity studies
T5 construct: the reagent used in the specificity studies is not described; also called IL-27p28
T5 sequence: T1 sequence 2

EBI3 subunit of IL-27 = target: T6, EBI3 subunit of IL-27 (Homo sapiens (Human), UniProt Q14213 21-229, limits assumed); test: biochemical affinity and specificity studies
T6 construct: the reagent used in the specificity studies is not described
T6 sequence: T1 sequence 1

recombinant human IL-27 [6] = target: T1, recombinant human IL-27; test: SPR (BIACORE 2000) as the paragraph says; values in FIG. 9
recombinant mouse IL-27 [7] = target: T2, recombinant mouse IL-27; test: column 'Affinity mIL-27 (M)'; method not given
recombinant mouse IL-27 [8] = target: T2, recombinant mouse IL-27; test: binding kinetics, SRF388 with IL-27 as analyte (instrument not named)
recombinant rat IL-27 [9] = target: T3, recombinant rat IL-27; test: as above
[10] = target: T4, recombinant cynomolgus monkey IL-27; test: as above
recombinant human IL-27 [11] = target: T1, recombinant human IL-27; test: binding kinetics, SRF388 at 1 ug/mL, IL-27 as analyte at 0 to 5.0 ug/mL (instrument not named)
Procedure: The association and dissociation of recombinant human IL-27 at concentrations ranging from 0 to 5.0 μg/mL with an SRF388 concentration of 1 μg/mL were determined.

recombinant human IL-27 [12] = target: T1, recombinant human IL-27; test: column 'Affinity hIL-27 (M)', property (i); method not given, paragraph 885 names SPR (BIACORE 2000)

IC50 of inhibition of phosphorylation of STAT1 in HUT-78 cells (recombinant human IL-27 [1]): 0.095 µg/mL
IC50 of inhibition of phosphorylation of STAT1 in U937 cells (recombinant human IL-27 [1]): 0.096 µg/mL
IC50 of inhibition of phosphorylation of STAT1 in pooled human PBMCs (recombinant human IL-27 [1]): 0.0583 µg/mL
Average IC50, pSTAT1 in peripheral blood T cells, human whole blood (recombinant human IL-27 [2]): 78.4 ng/mL
Average IC50, pSTAT1 in peripheral blood T cells, mouse whole blood (recombinant mouse IL-27 [3]): 1720 ng/mL
Average IC50, pSTAT1 in peripheral blood T cells, rat whole blood (recombinant rat IL-27 [4]): 273 ng/mL
Average IC50, pSTAT1 in peripheral blood T cells, cynomolgus monkey whole blood [5]: 118 ng/mL
binding result (p28 subunit of IL-27): binds
binding result (EBI3 subunit of IL-27): no binding
Kd (recombinant human IL-27 [6]): ≤ 15 nM
Kd (recombinant mouse IL-27 [7]): 0.594 nM
Kd (recombinant mouse IL-27 [8]): 4.43 nM
koff (recombinant mouse IL-27 [8]): 0.000244 s⁻¹
kon (recombinant mouse IL-27 [8]): 55000 M⁻¹ s⁻¹
Kd (recombinant rat IL-27 [9]): 0.0809 nM
koff (recombinant rat IL-27 [9]): 0.000189 s⁻¹
kon (recombinant rat IL-27 [9]): 2.34e+06 M⁻¹ s⁻¹
Kd [10]: 0.0374 nM
koff [10]: 1.19e-05 s⁻¹
kon [10]: 318000 M⁻¹ s⁻¹
Kd (recombinant human IL-27 [11]): 0.00386 nM
koff (recombinant human IL-27 [11]): 1.97e-06 s⁻¹
kon (recombinant human IL-27 [11]): 510000 M⁻¹ s⁻¹
Kd (recombinant human IL-27 [12]): 0.0013 nM
B1: SRF388 (antibody, V domains shown)
VH: EVQLVESGGGLVKPGGSLRLSCAASGFTFRSYGMNWVRQAPGKGLEWVSGISSSGSYIYYADSVKGRFTISRDNAKNSLYLQMNSLRAEDTAVYYCARDGGRTSYTATAHNWFDPWGQGTLVTVSS
VL: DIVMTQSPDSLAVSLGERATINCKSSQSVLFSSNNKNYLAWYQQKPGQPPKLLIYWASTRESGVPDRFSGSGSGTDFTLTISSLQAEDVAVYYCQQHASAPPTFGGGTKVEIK
notes: also called SRF388-A; SRF388-B
